We go through 1 molecule from PMC4624954, “Delineating the Tes Interaction Site in Zyxin and Studying Cellular Effects of Its Disruption” (PLoS ONE, 2015).

The target in the test is T1, Zyx FL WT-GFP (human, UniProt Q15942 1-572).
T1 sequence (looked up): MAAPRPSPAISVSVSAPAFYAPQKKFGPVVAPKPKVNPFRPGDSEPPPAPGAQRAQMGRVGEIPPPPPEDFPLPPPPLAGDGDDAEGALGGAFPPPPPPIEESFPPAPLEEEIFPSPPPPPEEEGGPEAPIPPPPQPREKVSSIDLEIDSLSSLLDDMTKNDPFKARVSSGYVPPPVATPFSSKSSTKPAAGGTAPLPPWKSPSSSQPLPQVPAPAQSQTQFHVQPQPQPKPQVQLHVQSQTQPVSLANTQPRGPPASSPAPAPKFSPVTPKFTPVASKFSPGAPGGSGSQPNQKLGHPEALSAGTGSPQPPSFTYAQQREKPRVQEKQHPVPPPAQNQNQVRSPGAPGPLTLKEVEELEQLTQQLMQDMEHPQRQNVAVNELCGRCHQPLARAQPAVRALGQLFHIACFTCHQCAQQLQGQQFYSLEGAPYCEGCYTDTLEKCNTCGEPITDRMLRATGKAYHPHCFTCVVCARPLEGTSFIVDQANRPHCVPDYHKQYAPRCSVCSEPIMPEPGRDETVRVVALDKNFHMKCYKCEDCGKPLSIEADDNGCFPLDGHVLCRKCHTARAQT
As to the kind of experiment: cell-based or functional assay.

B1: Tes FL-GFP (natural protein, UniProt Q9UGI8 1-421, looked up)
chain: MDLENKVKKMGLGHEQGFGAPCLKCKEKCEGFELHFWRKICRNCKCGQEEHDVLLSNEEDRKVGKLFEDTKYTTLIAKLKSDGIPMYKRNVMILTNPVAAKKNVSINTVTYEWAPPVQNQALARQYMQMLPKEKQPVAGSEGAQYRKKQLAKQLPAHDQDPSKCHELSPREVKEMEQFVKKYKSEALGVGDVKLPCEMDAQGPKQMNIPGGDRSTPAAVGAMEDKSAEHKRTQYSCYCCKLSMKEGDPAIYAERAGYDKLWHPACFVCSTCHELLVDMIYFWKNEKLYCGRHYCDSEKPRCAGCDELIFSNEYTQAENQNWHLKHFCCFDCDSILAGEIYVMVNDKPVCKPCYVKNHAVVCQGCHNAIDPEVQRVTYNNFSWHASTECFLCSCCSKCLIGQKFMPVEGMVFCSVECKKRMS
For B1, the “quantity of Tes FL-GFP in focal adhesions of zyxin-null fibroblasts with Zyx FL WT-DsRed against the DsRed control (confocal immunofluorescence)” value worked out at 2 fold.
